Reference: IntAct's records for PubMed 22087322

B1: Interleukin-10 receptor subunit alpha (Homo sapiens), Q13651 (parent)
chain: MLPCLVVLLAALLSLRLGSDAHGTELPSPPSVWFEAEFFHHILHWTPIPNQSESTCYEVALLRYGIESWNSISNCSQTLSYDLTAVTLDLYHSNGYRARVRAVDGSRHSNWTVTNTRFSVDEVTLTVGSVNLEIHNGFILGKIQLPRPKMAPANDTYESIFSHFREYEIAIRKVPGNFTFTHKKVKHENFSLLTSGEVGEFCVQVKPSVASRSNKGMWSKEECISLTRQYFTVTNVIIFFAFVLLLSGALAYCLALQLYVRRRKKLPSVLLFKKPSPFIFISQRPSPETQDTIHPLDEEAFLKVSPELKNLDLHGSTDSGFGSTKPSLQTEEPQFLLPDPHPQADRTLGNREPPVLGDSCSSGSSNSTDSGICLQEPSLSPSTGPTWEQQVGSNSRGQDDSGIDLVQNSEGRAGDTQGGSALGHHSPPEPEVPGEEDPAAVAFQGYLRQTRCAEEKATKTGCLEEESPLTDGLGPKFGRCLVDEAGLHPPALAKGYLKQDPLEMTLASSGAPTGQWNQPTEEWSLLALSSCSDLGISDWSFAHDLAPLGCVAAPGGLLGSFNSDLVTLPLISSLQSSE
B2: Interleukin-10 receptor subunit alpha (Mus musculus), Q61727 (parent)
chain: MLSRLLPFLVTISSLSLEFIAYGTELPSPSYVWFEARFFQHILHWKPIPNQSESTYYEVALKQYGNSTWNDIHICRKAQALSCDLTTFTLDLYHRSYGYRARVRAVDNSQYSNWTTTETRFTVDEVILTVDSVTLKAMDGIIYGTIHPPRPTITPAGDEYEQVFKDLRVYKISIRKFSELKNATKRVKQETFTLTVPIGVRKFCVKVLPRLESRINKAEWSEEQCLLITTEQYFTVTNLSILVISMLLFCGILVCLVLQWYIRHPGKLPTVLVFKKPHDFFPANPLCPETPDAIHIVDLEVFPKVSLELRDSVLHGSTDSGFGSGKPSLQTEESQFLLPGSHPQIQGTLGKEESPGLQATCGDNTDSGICLQEPGLHSSMGPAWKQQLGYTHQDQDDSDVNLVQNSPGQPKYTQDASALGHVCLLEPKAPEEKDQVMVTFQGYQKQTRWKAEAAGPAECLDEEIPLTDAFDPELGVHLQDDLAWPPPALAAGYLKQESQGMASAPPGTPSRQWNQLTEEWSLLGVVSCEDLSIESWRFAHKLDPLDCGAAPGGLLDSLGSNLVTLPLISSLQVEE

Variants of: B1
Conditions: with fbw1a_human BTRC

Variant	effect of a mutation on the interaction
MLPCLVVLLAALLSLRLGSDAHGTELPSPPSVWFEAEFFHHILHWTPIPNQSESTCYEVALLRYGIESWNSISNCSQTLSYDLTAVTLDLYHSNGYRARVRAVDGSRHSNWTVTNTRFSVDEVTLTVGSVNLEIHNGFILGKIQLPRPKMAPANDTYESIFSHFREYEIAIRKVPGNFTFTHKKVKHENFSLLTSGEVGEFCVQVKPSVASRSNKGMWSKEECISLTRQYFTVTNVIIFFAFVLLLSGALAYCLALQLYVRRRKKLPSVLLFKKPSPFIFISQRPSPETQDTIHPLDEEAFLKVSPELKNLDLHGSTDSGFGSTKPSLQTEEPQFLLPDPHPQADRTLGNREPPVLGDSCSSGSSNSTDAGICLQEPSLSPSTGPTWEQQVGSNSRGQDDSGIDLVQNSEGRAGDTQGGSALGHHSPPEPEVPGEEDPAAVAFQGYLRQTRCAEEKATKTGCLEEESPLTDGLGPKFGRCLVDEAGLHPPALAKGYLKQDPLEMTLASSGAPTGQWNQPTEEWSLLALSSCSDLGISDWSFAHDLAPLGCVAAPGGLLGSFNSDLVTLPLISSLQSSE [S370A]	decreasing interaction strength
MLPCLVVLLAALLSLRLGSDAHGTELPSPPSVWFEAEFFHHILHWTPIPNQSESTCYEVALLRYGIESWNSISNCSQTLSYDLTAVTLDLYHSNGYRARVRAVDGSRHSNWTVTNTRFSVDEVTLTVGSVNLEIHNGFILGKIQLPRPKMAPANDTYESIFSHFREYEIAIRKVPGNFTFTHKKVKHENFSLLTSGEVGEFCVQVKPSVASRSNKGMWSKEECISLTRQYFTVTNVIIFFAFVLLLSGALAYCLALQLYVRRRKKLPSVLLFKKPSPFIFISQRPSPETQDTIHPLDEEAFLKVSPELKNLDLHGSTDAGFGATKPSLQTEEPQFLLPDPHPQADRTLGNREPPVLGDSCSSGSSNSTDAGICLQEPSLSPSTGPTWEQQVGSNSRGQDDSGIDLVQNSEGRAGDTQGGSALGHHSPPEPEVPGEEDPAAVAFQGYLRQTRCAEEKATKTGCLEEESPLTDGLGPKFGRCLVDEAGLHPPALAKGYLKQDPLEMTLASSGAPTGQWNQPTEEWSLLALSSCSDLGISDWSFAHDLAPLGCVAAPGGLLGSFNSDLVTLPLISSLQSSE [S319A;S323A;S370A]	disrupting interaction strength
MLPCLVVLLAALLSLRLGSDAHGTELPSPPSVWFEAEFFHHILHWTPIPNQSESTCYEVALLRYGIESWNSISNCSQTLSYDLTAVTLDLYHSNGYRARVRAVDGSRHSNWTVTNTRFSVDEVTLTVGSVNLEIHNGFILGKIQLPRPKMAPANDTYESIFSHFREYEIAIRKVPGNFTFTHKKVKHENFSLLTSGEVGEFCVQVKPSVASRSNKGMWSKEECISLTRQYFTVTNVIIFFAFVLLLSGALAYCLALQLYVRRRKKLPSVLLFKKPSPFIFISQRPSPETQDTIHPLDEEAFLKVSPELKNLDLHGSTDAGFGATKPSLQTEEPQFLLPDPHPQADRTLGNREPPVLGDSCSSGSSNSTDSGICLQEPSLSPSTGPTWEQQVGSNSRGQDDSGIDLVQNSEGRAGDTQGGSALGHHSPPEPEVPGEEDPAAVAFQGYLRQTRCAEEKATKTGCLEEESPLTDGLGPKFGRCLVDEAGLHPPALAKGYLKQDPLEMTLASSGAPTGQWNQPTEEWSLLALSSCSDLGISDWSFAHDLAPLGCVAAPGGLLGSFNSDLVTLPLISSLQSSE [S319A;S323A]	decreasing interaction strength

Variants of: B2
Conditions: with fbw1a_human BTRC

Variant	effect of a mutation on the interaction
MLSRLLPFLVTISSLSLEFIAYGTELPSPSYVWFEARFFQHILHWKPIPNQSESTYYEVALKQYGNSTWNDIHICRKAQALSCDLTTFTLDLYHRSYGYRARVRAVDNSQYSNWTTTETRFTVDEVILTVDSVTLKAMDGIIYGTIHPPRPTITPAGDEYEQVFKDLRVYKISIRKFSELKNATKRVKQETFTLTVPIGVRKFCVKVLPRLESRINKAEWSEEQCLLITTEQYFTVTNLSILVISMLLFCGILVCLVLQWYIRHPGKLPTVLVFKKPHDFFPANPLCPETPDAIHIVDLEVFPKVSLELRDSVLHGSTDAGFGAGKPSLQTEESQFLLPGSHPQIQGTLGKEESPGLQATCGDNTDAGICLQEPGLHSSMGPAWKQQLGYTHQDQDDSDVNLVQNSPGQPKYTQDASALGHVCLLEPKAPEEKDQVMVTFQGYQKQTRWKAEAAGPAECLDEEIPLTDAFDPELGVHLQDDLAWPPPALAAGYLKQESQGMASAPPGTPSRQWNQLTEEWSLLGVVSCEDLSIESWRFAHKLDPLDCGAAPGGLLDSLGSNLVTLPLISSLQVEE [S320A;S324A;S367A]	disrupting interaction strength
MLSRLLPFLVTISSLSLEFIAYGTELPSPSYVWFEARFFQHILHWKPIPNQSESTYYEVALKQYGNSTWNDIHICRKAQALSCDLTTFTLDLYHRSYGYRARVRAVDNSQYSNWTTTETRFTVDEVILTVDSVTLKAMDGIIYGTIHPPRPTITPAGDEYEQVFKDLRVYKISIRKFSELKNATKRVKQETFTLTVPIGVRKFCVKVLPRLESRINKAEWSEEQCLLITTEQYFTVTNLSILVISMLLFCGILVCLVLQWYIRHPGKLPTVLVFKKPHDFFPANPLCPETPDAIHIVDLEVFPKVSLELRDSVLHGSTDAGFGAGKPSLQTEESQFLLPGSHPQIQGTLGKEESPGLQATCGDNTDSGICLQEPGLHSSMGPAWKQQLGYTHQDQDDSDVNLVQNSPGQPKYTQDASALGHVCLLEPKAPEEKDQVMVTFQGYQKQTRWKAEAAGPAECLDEEIPLTDAFDPELGVHLQDDLAWPPPALAAGYLKQESQGMASAPPGTPSRQWNQLTEEWSLLGVVSCEDLSIESWRFAHKLDPLDCGAAPGGLLDSLGSNLVTLPLISSLQVEE [S320A;S324A]	decreasing interaction strength
